Results reported in article PMC4947154, “Structural basis of transcobalamin recognition by human CD320 receptor” (Nature Communications, 2016).

B2: human transcobalamin (holo-TC, cyanocobalamin-bound) (natural protein, UniProt P20062 19-427, looked up)
chain: EMCEIPEMDSHLVEKLGQHLLPWMDRLSLEHLNPSIYVGLRLSSLQAGTKEDLYLHSLKLGYQQCLLGSAFSEDDGDCQGKPSMGQLALYLLALRANCEFVRGHKGDRLVSQLKWFLEDEKRAIGHDHKGHPHTSYYQYGLGILALCLHQKRVHDSVVDKLLYAVEPFHQGHHSVDTAAMAGLAFTCLKRSNFNPGRRQRITMAIRTVQEEILKAQTPEGHFGNVYSTPLALQFLMTSPMRGAELGTACLKARVALLASLQDGAFQNALMISQLLPVLNHKTYIDLIFPDCLAPRVMLEPAAETIPQTQEIISVTLQVLSLLPPYRQSISVLAGSTVEDVLKKAHELGGFTYETQASLSGPYLTSVMGKAAGEREFWQLLRDPNTPLLQGIADYRPKDGETIELRLVSW
notes: transcobalamin (TC), human, residues 1-409, cDNA GenBank BC001176.1 harbouring R209Q; native secretion signal replaced with a Melittin secretion signal; Purified in the presence of excess cyanocobalamin (Cbl-CN), so the Cbl site is occupied; R209Q came with the bought cDNA clone (ImaGenes); also called tag-less TC; full-length TC; source: Sf21 insect cells (Multibac baculovirus), secreted, …

Key:
[1] = biological target: B2; assay: ELISA; solid-phase binding assay: biotinylated MBP-tagged receptor on Neutravidin plates, tag-less TC serially diluted in 20 mM Tris pH 7.5, 0.5 mM CaCl2, 150 mM NaCl, 0.05% Tween-20, 1 h RT; TC detected with antibody A-5; single-site fit, n=5; settings: both partners purified
[2] = biological target: T1, CD320 extracellular domain, residues 53-199 (crystallization construct) (human, UniProt Q9NPF0 53-199); assay: crystal structure; co-crystals of the purified complex, sitting drop, 20 °C; settings: both partners purified
T1 construct: CD320 (transcobalamin receptor), human, residues 53-199 of the extracellular domain; native secretion signal replaced with a Melittin secretion signal; Density seen for LDLR-A1 residues 53-89 and LDLR-A2 residues 129-171; none for the EGF-like domain (90-128); also called N-terminal 22 amino acid deletion of the receptor; not shown: His9, N-terminal, cleaved; MBP, N-terminal, cleaved
T1 sequence (looked up): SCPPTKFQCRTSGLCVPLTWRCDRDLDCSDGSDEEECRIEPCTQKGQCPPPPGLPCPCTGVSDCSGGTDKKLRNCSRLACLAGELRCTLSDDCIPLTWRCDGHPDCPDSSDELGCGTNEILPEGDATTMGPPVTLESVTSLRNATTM

B1: MBP-tagged, biotinylated CD320 LDLR-A2 domain (residues 125-199, Avi Tag) (domain or fragment)
chain: not shown
modifications: biotin on the Avi Tag (BirA)
notes: CD320, human, LDLR type A domain 2 construct, residues 125-199; source: Sf21 insect cells (Multibac baculovirus), secreted, purified (Ni-NTA, no MBP cleavage), biotinylated with BirA; not shown: His9, N-terminal, kept; MBP, N-terminal, kept
Kd [1]: ~10 nM

B2
stoichiometry N [2]: 1 TC:CD320
